Where no end group is shown, it is not given here. Me3 = trimethyl (trimethylated lysine, Kme3)

Assay in all cases: ITC; H3K4me3 peptide (380 uM) titrated to KDM5A PHD3 fingers (28 uM); for AUX WT-KDM5A 190 uM peptide and 21 uM protein; 20 mM TRIS-HCl pH 7.5, 50 mM NaCl, 1 mM DTT; 19 injections; one set of sites model; 7-9 repeats (AUX WT in replicate)
In general terms: Isothermal titration calorimetry measures the heat released or taken up as one component is titrated into another.

The target of assay [1] is wild-type KDM5A PHD3 finger expressed in the auxotrophic E. coli Castellani and Chalmers strain (Homo sapiens) (UniProt P29375).
The target of assay [2] is KDM5A PHD3 finger with 5-fluorotryptophan at Trp18 and Trp28 (Homo sapiens) (UniProt P29375).
For assay [3], the target named is KDM5A PHD3 finger with 6-fluorotryptophan at Trp18 and Trp28 (Homo sapiens) (UniProt P29375).
Assay [4] has as its target wild-type KDM5A PHD3 finger expressed in E. coli Rosetta BL21 (DE3)pLysS (Homo sapiens) (UniProt P29375).
Assay [5] deals with KDM5A PHD3 finger with 5,6-difluorotryptophan at Trp18 and Trp28 (Homo sapiens) (UniProt P29375).

B1: H3K4me3 histone peptide (ARTKme3QTARKS) (peptide)
peptide: ARTK(Me3)QTARKS
Take B1: the Kd (usually the constant that tells how readily two partners part at equilibrium) in assay [1] came to 48 nM; in assay [2], 49 nM; in assay [3], 57 nM; in assay [4], 54 nM; in assay [5], 70 nM. For the same molecule, the dH is -11.9 kcal/mol in assay [1]; -10.9 kcal/mol in assay [2]; -12.1 kcal/mol in assay [3]; -11.6 kcal/mol in assay [4]; -11.7 kcal/mol in assay [5].

For the origin of these results see PMC9814790.
